The results in this text go back to PMC10693628, “Novel WYL domain-containing transcriptional activator acts in response to genotoxic stress in rapidly growing mycobacteria” (Communications Biology, 2023).

As a reminder, the stoichiometry N is the number of molecules, sites or subunits per partner or assembly. The Kd is the concentration at which binding is half-saturated.

Numbering of substitutions follows the chain as printed.

The target in series [1] is Sumo-SiwR (His6-TEV-Sumo-linker fused to the N-terminus of SiwR, stress-involved WYL domain-containing regulator, MSMEG_1359) (Mycobacterium smegmatis) (UniProt A0QS56). As to the kind of experiment: SEC; analytical gel filtration, Superdex 200 Increase 10/300 GL, buffer GF (50 mM HEPES-KOH pH 7.0, 150 mM NaCl, 0.5 mM TCEP, 1 mM EDTA); SiwR 40 uM protomer, MSMEG_1357 or MSMEG_1356 100 uM protomer; incubated at 37 °C for 20 min, run at 0.5 mL/min at room temperature. (Size exclusion chromatography separates by hydrodynamic size, large species first.)

Series [2] addresses MSMEG_1356 (DUF664 family protein, DinB/YfiT-like putative metalloenzymes superfamily) (Mycobacterium smegmatis) (UniProt A0QS54). Described as above.
Series [3] shares this target. As to the kind of experiment: SEC; gel filtration step of the purification, Superdex 75 10/300 GL 24 mL, after dialysis against buffer D (50 mM HEPES-KOH pH 7.0, 150 mM NaCl, 0.5 mM TCEP).
In series [4] the target is T1, Sumo-SiwR (Mycobacterium smegmatis, UniProt A0QS56 1-320).
T1 sequence: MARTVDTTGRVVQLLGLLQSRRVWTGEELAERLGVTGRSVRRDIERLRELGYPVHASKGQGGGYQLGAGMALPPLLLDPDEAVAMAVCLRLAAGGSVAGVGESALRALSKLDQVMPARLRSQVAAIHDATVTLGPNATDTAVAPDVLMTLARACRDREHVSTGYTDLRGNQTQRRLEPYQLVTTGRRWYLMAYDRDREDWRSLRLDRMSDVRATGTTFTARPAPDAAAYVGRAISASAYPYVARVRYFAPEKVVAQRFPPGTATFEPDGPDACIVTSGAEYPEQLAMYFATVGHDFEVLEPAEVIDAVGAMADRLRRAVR
As to the kind of experiment: EMSA; EMSA: 5 mM HEPES-KOH pH 7.0, 30 mM NaCl, 2.5% Ficoll 400K, 1% glycerol, 5 nM probe (10 nM in Fig. 2a legend), 37 °C 15 min; anisotropy: 5 mM HEPES-KOH pH 7, 30. The following applies: protein: recombinant; tags: His6-TEV-Sumo N-terminal fusion; chain copies: 2; label: 5'-FAM on strand 1; blunt.

The target of series [5] is T1, Sumo-SiwR. As to the kind of experiment: fluorescence anisotropy; EMSA: 5 mM HEPES-KOH pH 7.0, 30 mM NaCl, 2.5% Ficoll 400K, 1% glycerol, 5 nM probe (10 nM in Fig. 2a legend), 37 °C 15 min; anisotropy: 5 mM HEPES-KOH pH 7, 30. Particulars: protein: recombinant, tags: His6-TEV-Sumo N-terminal fusion, chain copies: 2. (In general: Fluorescence polarisation rises when a labelled molecule tumbles more slowly, as on binding a larger partner.)

Series [6] concerns the molecule itself. As to the kind of experiment: SEC; analytical gel filtration, Superdex 200 Increase 10/300 GL, buffer GF (50 mM HEPES-KOH pH 7.0, 150 mM NaCl, 0.5 mM TCEP, 1 mM EDTA); SiwR 40 uM protomer, MSMEG_1357 or MSMEG_1356 100 uM protomer; incubated at 37 °C for 20 min, run at 0.5 mL/min at room temperature.
Series [7] has as its target T1, Sumo-SiwR. The experiment in a line: fluorescence anisotropy; Kd for SiwR dimer; EMSA: 5 mM HEPES-KOH pH 7.0, 30 mM NaCl, 2.5% Ficoll 400K, 1% glycerol, 5 nM probe (10 nM in Fig. 2a legend), 37 °C 15 min; anisotropy: 5 mM HEPES-KOH pH 7, 30. Particulars: protein: recombinant; tags: His6-TEV-Sumo N-terminal fusion; chain copies: 2; label: 5'-FAM on strand 2; blunt.
Series [8] deals with T2, Sumo-SiwR R204A-R207A (Mycobacterium smegmatis, UniProt A0QS56 1-320, R204A;R207A).
T2 sequence: T1 sequence with R204A, R207A
As to the kind of experiment: EMSA; comparable to wild type; EMSA: 5 mM HEPES-KOH pH 7.0, 30 mM NaCl, 2.5% Ficoll 400K, 1% glycerol, 5 nM probe (10 nM in Fig. 2a legend), 37 °C 15 min; anisotropy: 5 mM HEPES-KOH pH 7, 30. The following applies: protein: recombinant; tags: His6-TEV-Sumo N-terminal fusion; chain copies: 2; label: 5'-FAM on strand 2; blunt.

Series [9] has as its target T2, Sumo-SiwR R204A-R207A. The experiment in a line: fluorescence anisotropy; EMSA: 5 mM HEPES-KOH pH 7.0, 30 mM NaCl, 2.5% Ficoll 400K, 1% glycerol, 5 nM probe (10 nM in Fig. 2a legend), 37 °C 15 min; anisotropy: 5 mM HEPES-KOH pH 7, 30. Particulars: protein: recombinant; tags: His6-TEV-Sumo N-terminal fusion; chain copies: 2; label: FAM.

As for “Sumo-SiwR (His6-TEV-Sumo-linker fused to the N-terminus of SiwR, stress-involved WYL domain-containing regulator, MSMEG_1359) (from UniProt A0QS56 1-320) (natural protein)”, the stoichiometry N in [1] came to 2.
On to “MSMEG_1356 (DUF664 family protein, DinB/YfiT-like putative metalloenzymes superfamily) (from UniProt A0QS54 1-203) (natural protein)”, for which the stoichiometry N in series [2] and in series [3] was 2 each time.

B1: fragment d (dsDNA)
DNA 1: GGCATATAGGACAGTTCCGGTCCTAAAAGT
DNA 2: ACTTTTAGGACCGGAACTGTCCTATATGCC
Regarding B1, in the series with Sumo-SiwR [4], the binding result is “binds”.

B2: 5' tailed DNA (dsDNA)
DNA 1: CGTCAGTCCAGT
DNA 2: GTCAGCAGCCTAACTGGACTGACG
Regarding B2, the Kd with Sumo-SiwR [5] (label: 5'-FAM on strand 1, 12 bp duplex, 5' overhang 12 nt on strand 2) was found to be 306 nM.
CGTCAGTCCAGT (ssDNA, 8-oxoguanine at position 6) [12-nt ssDNA 8-oxoG]: in the series with Sumo-SiwR [5] (label: 5'-FAM), the Kd amounted to 227 nM.

B3: MSMEG_1357 (DinB_2 family protein, DinB/YfiT-like putative metalloenzymes superfamily) (natural protein, Mycobacterium smegmatis, UniProt A0QS55 1-175, looked up)
chain: MDIDLIADQLDFHWTHQLRPRLDGLTDDEYFWQPVPGCWTVHADGSIDFSYPEPQPTPFTTIAWRLAHVIVGVLAMRNHSHFGGPPADYQTWPYATDAKTALEQLDDAHRNWITGVRALSEDDLQRPVGPAEGPWADHPMSELVLHINREVIHHGAEIACIRDLYAHTNNTAEEN
notes: MSMEG_1357, DinB_2 family (pfam12867) protein of Mycobacterium smegmatis; expressed from a pET21-His6-TEV-MSMEG_1357 plasmid; The construct name puts His6-TEV before the protein; No TEV cleavage is described; also called His6-TEV-MSMEG_1357
Consider B3, for which the “stoichiometry N” value in series [6] worked out at 2.
On to CGUCAGUCCAGU (ssRNA) [12-nt ssRNA], for which the binding result in the series with Sumo-SiwR [5] was “no binding”.

B4: fragment b (dsDNA)
DNA 1: TCCGGTCCTAAAAGTGCGGCAGACTTGTCGC
DNA 2: GCGACAAGTCTGCCGCACTTTTAGGACCGGA
Take B4: the binding result with Sumo-SiwR [4] is “no binding”.

B5: DNA fork mimic (dsDNA)
DNA 1: CGTCAGTCCAGTATCCGACGACTG
DNA 2: CAGTCGTCGGATTGACCTGACTGC
As to B5, the equilibrium dissociation constant (Kd) in the series with Sumo-SiwR [5] (label: 5'-FAM on strand 1, fork 1:2, 12 bp duplex with 12-nt 5' tail (strand 1) and 12-nt 3' tail (strand 2)) turned out to be 898 nM.

B6: msmeg_1357-56 promoter (dsDNA)
DNA 1: TGACCCACCCTGACAGGCATATAGGACAGTTCCGGTCCTAAAAGTGCGGCAGACTTGTCG
DNA 2: CGACAAGTCTGCCGCACTTTTAGGACCGGAACTGTCCTATATGCCTGTCAGGGTGGGTCA
In the case of B6, in the series with Sumo-SiwR [7], the Kd worked out at 651 nM. Also, the binding result with Sumo-SiwR R204A-R207A [8] was “binds”.
In the case of TTTTTTTTTTTTTTTTTTTT (ssDNA) [polyT20], the binding result in the series with Sumo-SiwR R204A-R207A [9] is recorded as “no binding”. Also, in the series with Sumo-SiwR [5] (label: FAM), the dissociation constant Kd came out at 182 nM.
CGTCAGTCCAGT (ssDNA) [12-nt ssDNA]: the dissociation constant (Kd) with Sumo-SiwR [5] (label: 5'-FAM) amounted to 178 nM.

B7: fragment c (dsDNA)
DNA 1: TGACAGGCATATAGGACAGTTCCGGTCCTAAAAGTGCGGC
DNA 2: GCCGCACTTTTAGGACCGGAACTGTCCTATATGCCTGTCA
As to B7, the binding result with Sumo-SiwR [4] is recorded as “binds”.

B8: 3' tailed DNA (dsDNA)
DNA 1: GCAGTCAGGTCAATCCGACGACTG
DNA 2: TGACCTGACTGC
Turning to B8, the equilibrium dissociation constant (Kd) with Sumo-SiwR [5] (label: FAM on strand 1, 12 bp duplex, 3' overhang 12 nt on strand 1) was determined as 702 nM.

B9: fragment a (dsDNA)
DNA 1: GTGACCCACCCTGACAGGCATATAGGACAGT
DNA 2: ACTGTCCTATATGCCTGTCAGGGTGGGTCAC
As for B9, the binding result with Sumo-SiwR [4] was “no binding”.
